From article PMC11741422 (bioRxiv, 2025)
Several values for one entry are separate records, joined by “and”; a condition that tells them apart may be missing. Identical values can stand only once. Blank lines part the entries; values can stand above or below the binder they belong to.

What was measured:
[1] = target: T1, lipid nanodisc reconstituted yeast V-ATPase Vo proton channel subcomplex (VoND) (Saccharomyces cerevisiae (S288c-type …, UniProt P32563;P25515;P32842;P23968;P32366;Q3E7B6;P0C5R9;P53262)); experiment: BLI
[2] = target: T1, lipid nanodisc reconstituted yeast …; experiment: cryo-EM structure
[3] = target: yeast Vo proteolipid subunit c (Vma3p) (yeast (Saccharomyces cerevisiae), UniProt P25515); experiment: cryo-EM structure
[4] = target: yeast Vo subunit d (yeast (Saccharomyces cerevisiae), UniProt P32366); experiment: cryo-EM structure
Sequence of yeast Vo subunit d (P32366 whole entry): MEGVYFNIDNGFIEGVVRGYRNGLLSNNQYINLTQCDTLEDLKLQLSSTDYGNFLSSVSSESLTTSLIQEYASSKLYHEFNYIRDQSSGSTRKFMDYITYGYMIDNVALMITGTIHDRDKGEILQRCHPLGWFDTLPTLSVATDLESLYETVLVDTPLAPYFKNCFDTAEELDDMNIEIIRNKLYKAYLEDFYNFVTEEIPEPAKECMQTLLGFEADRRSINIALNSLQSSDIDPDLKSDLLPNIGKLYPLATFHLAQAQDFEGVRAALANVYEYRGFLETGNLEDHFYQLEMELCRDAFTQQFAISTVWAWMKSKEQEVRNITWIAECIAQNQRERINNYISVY

Sequence of yeast Vo proteolipid subunit c (Vma3p) (P25515 whole entry): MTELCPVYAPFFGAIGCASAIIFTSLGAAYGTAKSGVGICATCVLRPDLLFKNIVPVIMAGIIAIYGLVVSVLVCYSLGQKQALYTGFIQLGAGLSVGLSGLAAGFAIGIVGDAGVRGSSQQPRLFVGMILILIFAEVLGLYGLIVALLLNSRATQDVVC

Kd [1]: 0.013 ± 0.001 nM
stoichiometry N [2]: 4 N125 per VoND and 3 N125 per VoND
binding result [3]: binds
B1: Nanobody N125 (1WVA25) (VHH)
VHH: QVQLQESGGGLVQPGGSLRLSCVASGFTFSRYAMTWVRQAPGKGLEWVSDISSGGSSTFYTDSVKGRFTISRDNAKNTLYLQMNSLKPDDTAIYFCAKGVPSYYSDYERRSKRYDSRGQGTQVTVSS

Kd [1]: < 0.001 nM
stoichiometry N [2]: 8 N27 per VoND
binding result [3]: binds
B2: Nanobody N27 (2WVA7) (VHH)
VHH: QVQLQESGGGLVEIGGSLRLSCAASGTLFTFNTMAWYRQAPGKQREFIATITSGGNTNYADSVQGRFTISRGNAKNTLYLQMNSLKPEDTAVYYCNARTMTGPFDYWGQGTQVTVSS

Kd [1]: 0.09 ± 0.023 nM
binding result [4]: binds
B3: Nanobody N2149 (2WVA149) (VHH)
VHH: QVQLQESGGGLVQAGGSLRLSCAVSGSIFSGNAMDWYRQAPGKQRELVASLTSTGSTNYADSVKGRFTITRDNAKNTVYLQMNSLKPEDTAVYYCHALIYRSRLDLAPGNYWGQGTQVTVSS
